In patent publication US20210230273A1 (Alexion, published 2021):

How the values were obtained:
cell surface CD200 [1] = target: T1, cell surface CD200 (human, UniProt P41217 31-278); experiment: whole-blood CD200 receptor occupancy by flow cytometry, T cells (CD3+); unlabelled antibody incubated overnight, free CD200 against total CD200 (1B2-AF647)
T1 construct: whole, on cells; also called CD200 on CD200 expressing Raji cells; CD200+ Raji cells
T1 sequence (looked up): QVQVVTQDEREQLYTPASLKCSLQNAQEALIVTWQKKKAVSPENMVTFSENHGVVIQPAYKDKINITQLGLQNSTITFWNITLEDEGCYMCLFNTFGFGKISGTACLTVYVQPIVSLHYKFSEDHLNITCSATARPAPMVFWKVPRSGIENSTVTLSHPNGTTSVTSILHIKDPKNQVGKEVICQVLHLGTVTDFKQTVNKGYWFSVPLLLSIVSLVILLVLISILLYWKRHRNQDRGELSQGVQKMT
Protocol: (§1) Whole blood (including sodium heparin as anticoagulant) was added at 250 μL/FACs tube and sealed. Tubes were incubated at 25° C. in a temperature-controlled cabinet overnight to allow therapeutic antibody binding.
(§2) FACS Antibody Staining: Cells were blocked with Fc blocking reagent for 30 min. Red blood cells were lysed with hemolytic buffer; remaining cells were spun 800×g for 5 minutes, and the resulting cell pellet was washed twice with PBS. After final wash, cell pellets were resuspended into 200 μL PBS. Cells were stained with a fixable Live/Dead dye for 20 minutes protected from light, and then neutralized and washed with FACS buffer. After the final wash the cells were resuspended in 100 μL wash with FcR block. Labeled antibody cocktail mixes were prepared CD3-PE/CD19-FITC/Alexa-647 or CD3-PE/CD19-FITC/1B2-647 in blocking buffer as well as appropriate controls (single color and FMO). The appropriate amount of antibody was added and incubated with cells protected from light for 30 minutes at room temperature. […]
(§3) FACS Analysis: Data was acquired on an automated cell analyzer (BD Fortessa) by gating on lymphocytes, and single live cells followed by B cell (CD19+-FITC) and T cells (CD3-PE) populations. […] Percent receptor occupancy was calculated from the MFI (median fluorescence intensity) according to the following formula: […]

cell surface CD200 [2] = target: T1, cell surface CD200; experiment: whole-blood CD200 receptor occupancy by flow cytometry, B cells (CD19+); unlabelled antibody incubated overnight, free CD200 against total CD200 (1B2-AF647)
Protocol: as §1, §2, §3

cell surface CD200 [3] = target: T1, cell surface CD200; experiment: flow cytometry, inhibition of labelled CD200R-Fc binding to CD200+ Raji cells; n = 1
Text: Next, the abilities of the newly-engineered anti-CD200 antibodies to antagonize CD200R were compared with that of samalizumab using CD200+ Raji cells. […] Binding of labeled CD200R-Fc was detected by flow cytometry.

B1: TPP-1143 (antibody, human IgG2, kappa, V domains shown)
VH: QVQLVQSGAEVKKPGASVKVSCKASGYSFTDYIILWVRQAPGQRLEWMGHIDPYYGSSNYNLKFKGRVTITRDTSASTAYMELSSLRSEDTAVYYCGRSKRDYFDYWGQGTLVTVSS
VL: DIQMTQSPSSLSASVGDRVTITCKASQDINSYLSWFQQKPGKAPKSLIYRANRLVDGVPSRFSGSGSGTDFTLTISSLQPEDFGTYYCLQYDEFPYTFGQGTKLEIKR
notes: mAb with human G2G4 Fc (effectorless); also called TPP-11143 (as printed once)
- EC50 (read off the curve) (cell surface CD200 [1]): ~4 ng/mL
- EC50 (read off the curve) (cell surface CD200 [2]): ~4 ng/mL
- EC50 (cell surface CD200 [3]): 0.186 nM
